Measured values published in patent US20220195043A1 (BEIJING MABWORKS BIOTECH, published 2022).
Where a chain is given by its changes, count along the chain named. Like-named read-outs stand apart in the source and are kept apart here. Each block holds one binder with its values, some of them ahead of it.

How the values were obtained:
[1] = molecular target: T1, human CD20 (HEK293A/human CD20 cells) (human, UniProt P11836 1-297); assay: FACS on HEK293A/human CD20 cells, PE anti-human IgG secondary antibody, MFI
T1 construct: Stably expressed on HEK293A cells; also called hCD20; HEK293A/hCD20
T1 sequence: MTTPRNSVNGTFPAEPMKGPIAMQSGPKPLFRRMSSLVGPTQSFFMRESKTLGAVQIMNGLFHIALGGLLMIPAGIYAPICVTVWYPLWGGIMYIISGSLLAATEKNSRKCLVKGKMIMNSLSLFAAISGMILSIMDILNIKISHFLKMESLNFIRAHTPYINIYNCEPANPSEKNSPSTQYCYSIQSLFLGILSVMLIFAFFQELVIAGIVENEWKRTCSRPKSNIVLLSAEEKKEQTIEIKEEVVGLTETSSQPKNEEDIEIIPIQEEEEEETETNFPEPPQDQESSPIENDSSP

[2] = molecular target: T2, human CD3ε-his (Cat #:10977-H08s, SinoBiological, China) (human, UniProt P07766 23-126); assay: SPR (BIAcore 8K); human CD3ε-his coupled to CM5 chip, antibody injected
T2 construct: Bought protein; also called human CD3ε protein; recombinant human CD3ε; not shown: his tag

[3] = molecular target: T3, monkey CD20 (HEK293A/monkey CD20 cells) (monkey, UniProt P11836 1-297 (human entry)); assay: FACS on HEK293A/monkey CD20 (CynoCD20) cells, PE anti-human IgG secondary antibody, MFI
T3 construct: Stably expressed on HEK293A cells; also called cynomolgus CD20
T3 chain: T1 sequence with S25P, F31L, T51A, A157V, N166Y, K217R, N226S, I227V, T239V

[4] = molecular target: T2, human CD3ε-his (Cat #:10977-H08s, …); assay: ELISA: plate coated with human CD3ε-his (hCD3ε-his), antibody titrated, HRP goat anti-human IgG, OD450
[5] = molecular target: T1, human CD20 (HEK293A/human CD20 cells); assay: cell-based or functional assay
[6] = molecular target: T4, monkey CD3ε-his (Cat #: 90047-C08H, SinoBiological, China) (monkey, UniProt Q95LI5 22-117); assay: ELISA: plate coated with monkey CD3ε-his, antibody titrated, HRP goat anti-human IgG, OD450
T4 construct: Bought protein; also called monkey CD3ε protein; recombinant monkey CD3ε
T4 sequence: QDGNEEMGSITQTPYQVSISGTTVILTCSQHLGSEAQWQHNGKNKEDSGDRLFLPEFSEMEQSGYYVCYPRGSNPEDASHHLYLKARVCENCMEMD

[7] = molecular target: T4, monkey CD3ε-his (Cat #: 90047-C08H, …); assay: ELISA: plate coated with monkey CD3ε-his, antibody titrated, HRP goat anti-human IgG, OD 450
[8] = molecular target: T5, human TCR/CD3 complex on cell surfaces (primary human CD4+ T cells; Jurkat cells; human PBMCs) (human, UniProt P07766 23-207); assay: FACS on primary human T cells, PE goat anti-human IgG, MFI
T5 construct: whole, on cells; Native complex on cells; the γ, δ, ζ and TCR chains of the complex are present on the cells too; also called human CD3 complexes on cell surfaces; human CD3+ T cells

[9] = molecular target: T2, human CD3ε-his (Cat #:10977-H08s, …); assay: ELISA: plate coated with human CD3ε-his, antibody titrated, HRP goat anti-human IgG, OD 450
[10] = molecular target: T2, human CD3ε-his (Cat #:10977-H08s, …); assay: SPR (BIAcore 8K); human CD3ε-his coupled to CM5 chip, antibody injected; remark: listed apart in the source
[11] = molecular target: T2, human CD3ε-his (Cat #:10977-H08s, …); assay: ELISA: plate coated with human CD3ε-his, antibody titrated, HRP goat anti-human IgG, OD450
[12] = molecular target: T5, human TCR/CD3 complex on cell surfaces …; assay: FACS on primary human T cells, PE goat anti-human IgG, MFI; remark: listed apart in the source
[13] = molecular target: T4, monkey CD3ε-his (Cat #: 90047-C08H, …); assay: ELISA: plate coated with monkey CD3ε-his, antibody titrated, HRP goat anti-human IgG, OD 450; remark: listed apart in the source
[14] = molecular target: T2, human CD3ε-his (Cat #:10977-H08s, …); assay: ELISA: plate coated with human CD3ε-his, antibody titrated, HRP goat anti-human IgG, OD 450; remark: listed apart in the source
[15] = molecular target: T5, human TCR/CD3 complex on cell surfaces …; assay: FACS on primary human T cells, PE goat anti-human IgG, MFI; remark: listed apart in the source

T5 sequence (P07766 23-207, one chain of several): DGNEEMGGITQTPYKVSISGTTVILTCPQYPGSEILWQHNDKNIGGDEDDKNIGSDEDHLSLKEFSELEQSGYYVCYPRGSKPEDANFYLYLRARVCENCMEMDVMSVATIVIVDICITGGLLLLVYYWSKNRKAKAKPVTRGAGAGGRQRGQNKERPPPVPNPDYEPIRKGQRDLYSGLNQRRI
T2 sequence (P07766 23-126 limits assumed): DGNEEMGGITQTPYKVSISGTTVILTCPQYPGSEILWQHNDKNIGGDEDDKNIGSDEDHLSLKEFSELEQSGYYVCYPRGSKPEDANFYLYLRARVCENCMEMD

EC50 (read off the curve) [1]: ~0.04 µg/mL | Kd [2]: 1.99 nM | binding result [3]: binds | EC50 (read off the curve) [4]: ~0.06 µg/mL
B1: MBS303-1 (bispecific antibody against CD3 and CD20, MIL220 + MIL221-1) (bispecific antibody, human IgG1, kappa, lambda, L234A L235A, N297A)
heavy 1: QVQLVQSGAEVKKPGSSVKVSCKASGYAFSYSWINWVRQAPGQGLEWMGRIFPGDGDTDYNGKFKGRVTITADKSTSTAYMELSSLRSEDTAVYYCARNVFDGYWLVYWGQGTLVTVSSASTKGPSVFPLAPSSKSTSGGTAALGCLVKDYFPEPVTVSWNSGALTSGVHTFPAVLQSSGLYSLSSVVTVPSSSLGTQTYICNVNHKPSNTKVDKKVEPKSCDKTHTCPPCPAPEAAGGPSVFLFPPKPKDTLMISRTPEVTCVVVDVSHEDPEVKFNWYVDGVEVHNAKTKPREEQYASTYRVVSVLTVLHQDWLNGKEYKCKVSNKALPAPIEKTISKAKGQPREPQVYTLPPSREEMTKNQVSLSCAVKGFYPSDIAVEWESNGQPENNYKTTPPVLDSDGSFFLVSKLTVDKSRWQQGNVFSCSVMHEALHNHYTQKSLSLSPGK
light 1: DIVMTQTPLSLPVTPGEPASISCRSSKSLLHSNGITYLYWYLQKPGQSPQLLIYQMSNLVSGVPDRFSGSGSGTDFTLKISRVEAEDVGVYYCAQNLELPYTFGGGTKVEIKRTVAAPSVFIFPPSDEQLKSGTASVVCLLNNFYPREAKVQWKVDNALQSGNSQESVTEQDSKDSTYSLSSTLTLSKADYEKHKVYACEVTHQGLSSPVTKSFNRGEC
heavy 2: QVQLVQSGAEVKKPGSSVKVSCKASGYAFSYSWINWVRQAPGQGLEWMGRIFPGDGDTDYNGKFKGRVTITADKSTSTAYMELSSLRSEDTAVYYCARNVFDGYWLVYWGQGTLVTVSSGGGGSGGGGSGGGGSDIVMTQTPLSLPVTPGEPASISCRSSKSLLHSNGITYLYWYLQKPGQSPQLLIYQMSNLVSGVPDRFSGSGSGTDFTLKISRVEAEDVGVYYCAQNLELPYTFGGGTKVEIKGGGGSGGGGSGGGGSEVQLLESGGGLVQPGGSLRLSCAASGFTFNTYAMNWVRQAPGKGLEWVARIRSKYNNYATYYAISVKDRFTISRDNSKNTLYLQMNSLRAEDTAVYYCVKHGNFGNSYLSYWAYWGQGTLVTVSSASTKGPSVFPLAPSSKSTSGGTAALGCLVKDYFPEPVTVSWNSGALTSGVHTFPAVLQSSGLYSLSSVVTVPSSSLGTQTYICNVNHKPSNTKVDKKVEPKSCDKTHTCPPCPAPEAAGGPSVFLFPPKPKDTLMISRTPEVTCVVVDVSHEDPEVKFNWYVDGVEVHNAKTKPREEQYASTYRVVSVLTVLHQDWLNGKEYKCKVSNKALPAPIEKTISKAKGQPREPQVYTLPPSREEMTKNQVSLWCLVKGFYPSDIAVEWESNGQPENNYKTTPPVLDSDGSFFLYSKLTVDKSRWQQGNVFSCSVMHEALHNHYTQKSLSLSPGK
light 2: QAVVTQEPSLTVSPGGTVTLTCQSSTGAVTTNNYANWVQQKPGHAFRGLIGGTKQRAPGVPARFSGSLLGGKAALTLSGVQPEDEAEYYCVLWYSNLWVFGGGTKLTVLGQPKAAPSVTLFPPSSEELQANKATLVCLISDFYPGAVTVAWKADSSPVKAGVETTTPSKQSNNKYAASSYLSLTPEQWKSHRSYSCQVTHEGSTVEKTVAPT
notes: CD20:CD3 = 2:1
EC50 of killing of HEK293A/hCD20 cells by T cells, MBS303-1 alone [5]: 0.0076 µg/mL | EC50 of killing of HEK293A/hCD20 cells by T cells, MBS303-1 with 1 µg/ml MIL62 [5]: 0.0032 µg/mL

EC50 (read off the curve) [1]: ~0.03 µg/mL | Kd [2]: 1.79 nM | EC50 (read off the curve) [3]: ~0.06 µg/mL | EC50 (read off the curve) [4]: ~0.06 µg/mL
B2: MBS303-2 (bispecific antibody against CD3 and CD20, MIL220 + MIL221-2) (bispecific antibody, human IgG1, kappa, lambda, L234A L235A, N297A)
heavy 1: B1 heavy 1
light 1: B1 light 1
heavy 2: B1 heavy 2 with N337D, V356M, K361R
light 2: B1 light 2
notes: CD20:CD3 = 2:1
EC50 of killing of HEK293A/hCD20 cells by T cells, MBS303-2 alone [5]: 0.0098 µg/mL | EC50 of killing of HEK293A/hCD20 cells by T cells, MBS303-2 with 1 µg/ml MIL62 [5]: 0.0039 µg/mL

EC50 (read off the curve) [6]: ~60 µg/mL | EC50 (read off the curve) [7]: ~0.04 µg/mL | EC50 (read off the curve) [8]: ~200 µg/mL | EC50 (read off the curve) [9]: ~0.05 µg/mL | kon [10]: 229000 M⁻¹ s⁻¹ | EC50 (read off the curve) [11]: ~60 µg/mL
B3: chimeric antibody 19-15 (full length, human IgG1) (antibody, V domains shown)
VH: EVKLLESGGGLVQPKGSLKLSCAASGFTFNTYAMNWVRQAPGKGLEWVARIRSKYNNYATYYAISVKDRFTISRDDSQSILYLQMNNLKTEDTAMYYCVRHGNFGNSYLSYWAYWGQGTLVTVSA
VL: QAVVTQESALTTSPGETVTLTCQSSTGAVTTNNYANWVQEKPDHLFTGLIGGTKQRAPGVPARFSGSLIGDKAALTITGAQTEDEAIYFCVLWYSNLWVFGGGTKLTVLG

EC50 (read off the curve) [6]: ~100 µg/mL | EC50 (read off the curve) [12]: ~0.2 µg/mL | EC50 (read off the curve) [11]: ~100 µg/mL
B4: humanized anti-CD3 antibody 15H3L2 (human IgG1) (antibody, V domains shown)
VH: B3 VH with K3Q, K15G, K19R, Q78K, S79N, I80T, N87S, K89R, T90A, A125S
VL: QTVVTQEPSLTVSPGGTVTLTCQSSTGAVTTNNYANWVQQKPGQAPRALIGGTKQRAPGTPARFSGSLLGGKAALTLSGVQPEDEAEYYCVLWYSNLWVFGGGTKLTVLG

EC50 (read off the curve) [6]: ~300 µg/mL | EC50 (read off the curve) [12]: ~0.2 µg/mL | EC50 (read off the curve) [11]: ~300 µg/mL
B5: humanized anti-CD3 antibody 15H3L3 (human IgG1, light constant region SEQ ID NO: 23) (antibody)
heavy: not shown
light: QAVVTQEPSLTVSPGGTVTLTCQSSTGAVTTNNYANWVQQKPGHAFRGLIGGTKQRAPGVPARFSGSLLGGKAALTLSGVQPEDEAEYYCVLWYSNLWVFGGGTKLTVLGQPKAAPSVTLFPPSSEELQANKATLVCLISDFYPGAVTVAWKADSSPVKAGVETTTPSKQSNNKYAASSYLSLTPEQWKSHRSYSCQVTHEGSTVEKTVAPTECS

EC50 (read off the curve) [13]: ~0.1 µg/mL | EC50 (read off the curve) [14]: ~0.1 µg/mL | EC50 (read off the curve) [15]: ~0.1 µg/mL
B6: humanized anti-CD3 antibody 26H2L3 (human IgG1) (antibody, V domains shown)
VH: EVQLLESGGGLVQPGGSLRLSCAASGFTFNTYAMNWVRQAPGKGLEWVARIRSKYNNYATYYADSVKDRFTISRDNSKNTLYLQMNSLRAEDTAVYYCVKHGNFGNSYISWWAYWGQGTLVTVSS
VL: QAVVTQEPSLTVSPGGTVTLTCKSSTGAVTTSNYANWVQQKPGHAFRGLIGGTNLHAPGVPARFSGSLLGGKAALTLSGVQPEDEAEYYCALWYSNLWVFGGGTKLTVLG

EC50 (read off the curve) [8]: ~700 µg/mL | EC50 (read off the curve) [13]: ~0.1 µg/mL | EC50 (read off the curve) [14]: ~0.1 µg/mL | EC50 (read off the curve) [9]: ~0.05 µg/mL | EC50 (read off the curve) [15]: ~0.2 µg/mL
B7: chimeric antibody 19-26 (full length, human IgG1) (antibody, V domains shown)
VH: B3 VH with I64D, L109I, Y111W
VL: B3 VL with Q23K, N32S, K54N, Q55L, R56H, V91A
